These results are taken from paper PMC11969024 (2025).

To fix the notation:
B1: peptide HD2 (from tick evasin EVA4) / CCL18 (biotinylated, synthetic) (parent complex)
chain 1: EEDDYTAYAPLTCYFT
chain 2: AQVGTNKELCCLVYTSWQIPQKFIVDYSETSPQCPKPGVILLTKRGRQICADPNKKWVQKYISDLKLNA

Variants of B1 are the subject of the test.
Regarding chain 1 E1N, the enrichment is -0.496 log2 (difference from the parental peptide). With chain 1 E1W, the enrichment was -2.19 log2 (difference from the parental peptide). The result for chain 1 E1S reads -0.81 log2 (difference from the parental peptide); that for chain 1 T6M, 0.172 log2 (difference from the parental peptide). For chain 1 T6A, the enrichment is 1.9 log2 (difference from the parental peptide).

For chain 1 T6K, the enrichment was -0.184 log2 (difference from the parental peptide). As for chain 1 T6N, the figure is 1.41 log2 (difference from the parental peptide); as for chain 1 T6R, 0.592 log2 (difference from the parental peptide). As to chain 1 T6Y, the enrichment was -0.339 log2 (difference from the parental peptide). On to chain 1 Y8N, for which the enrichment was -8.33 log2 (difference from the parental peptide). In the case of chain 1 Y8L, the enrichment was -6.1 log2 (difference from the parental peptide). Take chain 1 Y8H: the enrichment was -6.18 log2 (difference from the parental peptide). Regarding chain 1 T16P, the enrichment was 1.74 log2 (difference from the parental peptide). Consider chain 1 T16Y, for which the enrichment is -0.525 log2 (difference from the parental peptide). For chain 1 T16E, the enrichment is 1.13 log2 (difference from the parental peptide).

In the case of chain 1 T16R, the enrichment is -1.37 log2 (difference from the parental peptide). On to chain 1 L11A, for which the enrichment was 0.458 log2 (difference from the parental peptide). Take chain 1 L11E: the enrichment is -3.32 log2 (difference from the parental peptide). Take chain 1 D3T: the enrichment was -2 log2 (difference from the parental peptide). As for chain 1 D3K, the figure is -3.97 log2 (difference from the parental peptide); as for chain 1 D3F, -1.57 log2 (difference from the parental peptide); as for chain 1 Y5R, -6.25 log2 (difference from the parental peptide). For the variant chain 1 Y5E, the enrichment was -1.36 log2 (difference from the parental peptide). The result for chain 1 Y5M reads -0.412 log2 (difference from the parental peptide); that for chain 1 Y5W, 1.32 log2 (difference from the parental peptide). In the case of chain 1 Y14K, the enrichment was -6.36 log2 (difference from the parental peptide). chain 1 Y14N: the enrichment is -4.78 log2 (difference from the parental peptide).

As for chain 1 Y14D, the enrichment is -5.4 log2 (difference from the parental peptide). As for chain 1 Y14T, the enrichment is -1.1 log2 (difference from the parental peptide). chain 1 Y14Q: the enrichment is -3.29 log2 (difference from the parental peptide). As to chain 1 F15T, the enrichment was 0.316 log2 (difference from the parental peptide). Turning to chain 1 F15L, the enrichment was 0.128 log2 (difference from the parental peptide). As for chain 1 F15S, the figure is -0.989 log2 (difference from the parental peptide); as for chain 1 F15K, -0.831 log2 (difference from the parental peptide); as for chain 1 F15N, -2.68 log2 (difference from the parental peptide). With chain 1 F15W, the enrichment was -0.236 log2 (difference from the parental peptide). Consider chain 1 F15D, for which the enrichment is -4.04 log2 (difference from the parental peptide). As for chain 1 F15E, the enrichment is -2.62 log2 (difference from the parental peptide). Consider chain 1 F15M, for which the enrichment is 0.0729 log2 (difference from the parental peptide). The result for chain 1 F15C reads -5.58 log2 (difference from the parental peptide). For the variant chain 1 F15V, the enrichment was 1.03 log2 (difference from the parental peptide). Consider chain 1 C13F, for which the enrichment is -5.66 log2 (difference from the parental peptide). For the variant chain 1 C13W, the enrichment is -6.26 log2 (difference from the parental peptide). For the variant chain 1 A9H, the enrichment is -4.5 log2 (difference from the parental peptide).

For the variant chain 1 A9Y, the enrichment is -7.05 log2 (difference from the parental peptide). Turning to chain 1 A9T, the enrichment was -3.35 log2 (difference from the parental peptide).

For the variant chain 1 A9E, the enrichment is -0.109 log2 (difference from the parental peptide). The result for chain 1 A9S reads -1.48 log2 (difference from the parental peptide); that for chain 1 A9C, -10.3 log2 (difference from the parental peptide); that for chain 1 A9P, -6 log2 (difference from the parental peptide). For the variant chain 1 T12Y, the enrichment is 0.868 log2 (difference from the parental peptide).

Consider chain 1 T12P, for which the enrichment was 1.92 log2 (difference from the parental peptide). chain 1 T12M: the enrichment is 0.511 log2 (difference from the parental peptide). Turning to chain 1 T12R, the enrichment was -2.9 log2 (difference from the parental peptide).

chain 1 A7H: the enrichment was -0.736 log2 (difference from the parental peptide). For the variant chain 1 A7D, the enrichment is 1.19 log2 (difference from the parental peptide).

chain 1 A7R: the enrichment was 1.21 log2 (difference from the parental peptide). The result for chain 1 A7E reads 2.03 log2 (difference from the parental peptide); that for chain 1 A7P, 0.82 log2 (difference from the parental peptide). For the variant chain 1 A7K, the enrichment is 1.7 log2 (difference from the parental peptide). Regarding chain 1 E2R, the enrichment is -3.87 log2 (difference from the parental peptide). As to chain 1 E2M, the enrichment is -1.79 log2 (difference from the parental peptide). Regarding chain 1 E2W, the enrichment was -1.25 log2 (difference from the parental peptide).

On to chain 1 E2T, for which the enrichment was -2.6 log2 (difference from the parental peptide). chain 1 E2H: the enrichment was -2.48 log2 (difference from the parental peptide). chain 1 E2Q: the enrichment was -1.4 log2 (difference from the parental peptide). For the variant chain 1 D4E, the enrichment was -0.211 log2 (difference from the parental peptide).

As for chain 1 D4N, the enrichment is -1.99 log2 (difference from the parental peptide).

For the variant chain 1 D4F, the enrichment is -2.31 log2 (difference from the parental peptide). With chain 1 D4Y, the enrichment was -1.35 log2 (difference from the parental peptide). Regarding chain 1 D4W, the enrichment was -1.54 log2 (difference from the parental peptide).

chain 1 P10G: the enrichment was -8.83 log2 (difference from the parental peptide). The result for chain 1 P10A reads -7.91 log2 (difference from the parental peptide); that for chain 1 P10Q, -5.59 log2 (difference from the parental peptide); that for chain 1 P10N, -8.22 log2 (difference from the parental peptide).
